The values that follow come from article PMC5652298 (Nature structural & molecular biology, 2017).

The target in test [1] is wild-type Shaker K+ channel with N-type inactivation removed (UniProt P08510). Put plainly: […].
Test [2] deals with 3/4V478W mutant Shaker concatemer channel. The test is described as follows: […].

Broadly, the Kd is the concentration at which binding is half-saturated. High values mean lower affinity, low ones higher affinity. On to “wild-type AgTx2 (from UniProt P46111 1-38) (peptide)”, for which the dissociation constant Kd in test [1] came to 2.5 nM.
For the molecule GVPINVSCTGSPQCIKPCKDAGMRFGKCMNRKCHCTPK [wild-type AgTx2], in test [2], the equilibrium dissociation constant (Kd) was 9.2 nM.
